The target in test [1] is T1, mouse FLT3 (mouse, UniProt Q00342 28-544, limits assumed).
T1 construct: Named only in one sentence; no assay is described
T1 sequence (looked up): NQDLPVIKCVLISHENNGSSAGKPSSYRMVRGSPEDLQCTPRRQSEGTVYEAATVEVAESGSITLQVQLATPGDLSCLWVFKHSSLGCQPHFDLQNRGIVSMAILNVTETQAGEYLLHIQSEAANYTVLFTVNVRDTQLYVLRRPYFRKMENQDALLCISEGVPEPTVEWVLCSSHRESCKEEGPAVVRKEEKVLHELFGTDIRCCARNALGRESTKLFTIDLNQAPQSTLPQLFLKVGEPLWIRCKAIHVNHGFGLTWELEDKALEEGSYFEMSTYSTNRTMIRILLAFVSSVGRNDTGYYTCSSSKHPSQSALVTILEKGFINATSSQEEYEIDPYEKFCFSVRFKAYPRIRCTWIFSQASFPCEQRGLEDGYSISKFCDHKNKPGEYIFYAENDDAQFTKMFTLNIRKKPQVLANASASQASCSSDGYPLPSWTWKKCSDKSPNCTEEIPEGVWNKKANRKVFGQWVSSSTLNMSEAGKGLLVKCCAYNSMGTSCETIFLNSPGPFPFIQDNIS
The experiment in a line: not described.

The target of test [2] is T2, cynomolgus FLT3 (cynomolgus, UniProt A0A2K5VQ48 27-993).
T2 construct: whole, on cells; also called cyno FLT3; monkey FLT3
T2 sequence: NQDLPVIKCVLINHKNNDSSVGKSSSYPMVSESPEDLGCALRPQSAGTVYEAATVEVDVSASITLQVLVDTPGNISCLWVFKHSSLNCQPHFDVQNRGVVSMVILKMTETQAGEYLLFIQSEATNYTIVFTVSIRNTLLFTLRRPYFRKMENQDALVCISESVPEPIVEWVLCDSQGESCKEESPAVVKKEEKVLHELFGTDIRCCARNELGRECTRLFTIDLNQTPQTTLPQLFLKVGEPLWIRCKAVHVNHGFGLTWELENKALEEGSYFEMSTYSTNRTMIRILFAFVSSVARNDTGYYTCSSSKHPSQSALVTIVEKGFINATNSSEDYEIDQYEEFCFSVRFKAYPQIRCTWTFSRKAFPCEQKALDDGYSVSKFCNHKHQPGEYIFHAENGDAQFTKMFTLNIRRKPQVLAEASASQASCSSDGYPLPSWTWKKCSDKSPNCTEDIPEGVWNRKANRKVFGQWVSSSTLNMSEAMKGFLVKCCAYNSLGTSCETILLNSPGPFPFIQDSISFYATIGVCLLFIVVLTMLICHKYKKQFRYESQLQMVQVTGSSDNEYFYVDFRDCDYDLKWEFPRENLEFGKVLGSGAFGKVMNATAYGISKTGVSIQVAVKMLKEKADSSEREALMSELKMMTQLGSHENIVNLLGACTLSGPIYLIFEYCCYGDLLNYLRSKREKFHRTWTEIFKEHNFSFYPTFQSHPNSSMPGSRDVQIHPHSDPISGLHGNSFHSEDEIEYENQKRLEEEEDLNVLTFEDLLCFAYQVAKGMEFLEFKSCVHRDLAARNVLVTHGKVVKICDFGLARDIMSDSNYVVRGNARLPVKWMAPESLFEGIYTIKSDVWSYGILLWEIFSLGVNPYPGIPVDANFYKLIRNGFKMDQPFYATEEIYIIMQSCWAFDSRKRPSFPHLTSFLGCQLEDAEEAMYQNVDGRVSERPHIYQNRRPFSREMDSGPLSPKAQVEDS
Nature of the test: flow cytometry on stably expressing cyno FLT3-STAT5-Luciferase cells, AF488 anti-human IgG (H+L) detection. Here is the method:
(§1) Since NB1113 binds to human FLT3, but not mouse FLT3, the binding and functional activity of NB1113 was evaluated in both human and cynomolgus (cyno) FLT3-expressing systems. Stably expressing human and cyno FLT3-STAT5-Luciferase cells were used for both binding and functional assays. The binding of NB1113 to human or cyno FLT3 was assessed by flow cytometry using different concentrations of NB1113 in PBS+2% FBS, followed by detection using AF488 anti-human IgG (H+L) secondary antibody.
A general note: In flow cytometry, cells or beads pass a laser one at a time.

Test [3] has as its target T3, human FLT3 (FMS-like tyrosine kinase 3) (human, UniProt P36888 27-993).
T3 construct: whole, on cells; also called CD135
T3 sequence (looked up): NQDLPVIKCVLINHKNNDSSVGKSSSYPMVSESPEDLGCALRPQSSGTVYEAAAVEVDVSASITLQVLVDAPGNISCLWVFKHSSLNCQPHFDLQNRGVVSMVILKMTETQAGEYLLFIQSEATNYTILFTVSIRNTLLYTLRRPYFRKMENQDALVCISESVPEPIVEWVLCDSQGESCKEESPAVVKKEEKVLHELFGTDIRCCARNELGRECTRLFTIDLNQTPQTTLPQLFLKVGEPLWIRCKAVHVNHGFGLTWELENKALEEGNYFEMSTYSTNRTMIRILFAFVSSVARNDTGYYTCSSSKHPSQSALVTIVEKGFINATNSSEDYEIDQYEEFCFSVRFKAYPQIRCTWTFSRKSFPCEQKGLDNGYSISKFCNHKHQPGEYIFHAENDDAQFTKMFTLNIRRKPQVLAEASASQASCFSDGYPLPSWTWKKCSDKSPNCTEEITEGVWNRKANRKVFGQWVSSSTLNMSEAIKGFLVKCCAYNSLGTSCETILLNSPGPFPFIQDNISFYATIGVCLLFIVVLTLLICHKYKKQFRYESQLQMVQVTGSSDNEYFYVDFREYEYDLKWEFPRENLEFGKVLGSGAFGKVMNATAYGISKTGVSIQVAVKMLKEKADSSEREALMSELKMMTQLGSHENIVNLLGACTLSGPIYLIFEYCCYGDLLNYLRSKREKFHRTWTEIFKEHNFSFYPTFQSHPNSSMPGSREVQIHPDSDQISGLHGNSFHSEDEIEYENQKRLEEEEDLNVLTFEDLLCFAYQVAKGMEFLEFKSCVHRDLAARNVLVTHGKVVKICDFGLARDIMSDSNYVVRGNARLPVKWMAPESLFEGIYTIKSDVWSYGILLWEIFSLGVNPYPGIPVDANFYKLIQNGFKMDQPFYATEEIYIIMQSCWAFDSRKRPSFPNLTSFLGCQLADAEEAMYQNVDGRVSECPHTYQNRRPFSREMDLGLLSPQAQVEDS
Nature of the test: flow cytometry on stably expressing human FLT3-STAT5-Luciferase cells, AF488 anti-human IgG (H+L) detection. Here is the method: as §1

The target of test [4] is T2, cynomolgus FLT3. The experiment in a line: cell-based or functional assay.
Test [5] addresses T3, human FLT3 (FMS-like tyrosine kinase 3). The experiment in a line: cell-based or functional assay.

B1: NB1113 (antibody, V domains shown)
VH: EVQLLESGGGLVQPGGSLRLSCAPSGFTFSNYGMAWVRQAPGKGLEWVSSIHSGGGDTYYRDSVKGRFTISRDNSKNTLYLQMNSLRAEDTAVYYCARGRTPTGYYFDHWGQGTMVTVSS
VL: DIQMTQSPSSLSASVGDRVTITCRASEGIHSGLAWYQQKPGKVPKLLIYNANSLHSGVPSRFSGSGSGTDFTLTISSLQPEDVATYFCQQYYDYPLTFGQGTKLEIK
notes: Light chain variant (N31S in CDR-L1) of humanized NB1063 (VH1 x VL1); The constant regions are not restated for the humanized antibodies; the parent chimera NB1016 is human IgG4PAA (S228P, F234A, L235A) / human kappa; also called NB11113; N31S light chain variant of NB1063
In the case of B1, in test [1], the binding result is “no binding”. Also, the half-maximal effective concentration (EC50) (in general, the concentration that produces a half-maximal response) in test [2] amounted to 0.9 nM; in test [3] it was 1.36 nM. The “EC50 in cyno FLT3-STAT5-Luciferase reporter assay” value in test [4] was 1.6 nM. The “EC50 in human FLT3-STAT5-Luciferase reporter assay” value in test [5] was 1.1 nM. For the same molecule, the “EC50 of expansion of HLA-DR+CD1c+ cells from primary human bone marrow, 12 days” value in test [5] turned out to be 0.113 nM.

The values are drawn from patent US20220025055A1 (Boehringer Ingelheim, published 2022).
